Series [1] can be described thus: In-vitro flow system perfusion of antibody-loaded stents (antibody remaining on stent). It is filed as physicochemical. To be noted: 10 ml/min, 1% BSA in PBS, after approximately 10 days perfusion. As for the experimental part: In one example, device 10 is a stainless steel GR II™ stent in which the stainless steel base material 14 of structure 12 is coated with a polymer and, in particular, parylene. This adsorbent polymer layer 16 of parylene is approximately 230,000 Å thick. Bioactive material layer 18 of the antiplatelet GP IIb/IIIa antibody (AZ1) was passively loaded on adsorbent polymer layer 16. The polymer coated stainless steel stents were immersed for approximately 24 hours in a buffered aqueous solution of AZ1 antibody (1 mg/ml, pH=7.2) at 37° C. AZ1 is a monoclonal anti-rabbit platelet glycoprotein (GP) IIb/IIIa antibody.
In another example, c7E3 Fab as bioactive material layer 18 is attached to polymer coating layer 16. Bioactive material c7E3 Fab is a chimeric monoclonal antibody that acts upon the […] integrin on platelets to inhibit their aggregation. This antibody or receptor blocker may be used in humans intravenously to prevent thrombosis during coronary angioplasty. This receptor blocker is also known as ReoPro™ available from Eli Lilly, Indianapolis, Ind. Bioactive material layer 18 of the antiplatelet GP IIb/IIIa antibody (c7E3 Fab) was passively loaded on adsorbent polymer layer 16. […]

Series [2] can be described thus: In vitro release rate of bioactive material from beneath porous parylene layer. It is filed as physicochemical. The conditions noted are these: dexamethasone layer over heparin layer, compared with the material alone. As for the experimental part: When the at least one layer 18 of bioactive material contains a relatively soluble material such as heparin, the at least one layer 18 preferably contains a total of from about 0.1 to about 4 mg of bioactive material per cm^2 of the gross surface area of the structure 12. This provides a release rate for the heparin (measured in vitro) which is desirably in the range of 0.1 to 0.5 mg/cm^2 per day, and preferably about 0.25 mg/cm^2 per day, under typical blood flows through vascular stents. It should be noted that the solubility of dexamethasone may be adjusted as desired, with or without the inclusion of heparin, by mixing it with one or more of its relatively more soluble derivatives, such as dexamethasone sodium phosphate.
For example, when the structure 12 of the device 10 is configured as a vascular stent, it is advantageous for the at least one layer 18 to contain relatively soluble heparin, and the second layer 22 to contain relatively less soluble dexamethasone. […] More particularly, when dexamethasone is disposed by itself beneath a porous parylene layer 20 dimensioned as disclosed above, its release rate is negligible; an adequate release rate is obtained only when the thickness of the porous layer 20 is reduced by a factor of ten or more. […]

As to “c7E3 Fab: chimeric monoclonal antibody that acts upon the […] integrin on platelets to inhibit their aggregation”, the “fraction of loaded antibody remaining on the stent” value in series [1] is on record as “approximately half”.

For heparin, in series [2], the “change of release rate in heparin/dexamethasone two-layer device” value is on record as “lowered”.

These data come from patent US7846202B2, “Coated implantable medical device” (Cook Incorporated, priority 1995, dated 2010).
